Assay results as given in PMC8041713, “Identification and biochemical characterisation of tyrosine aminotransferase from Anthoceros agrestis unveils the conceivable entry point into rosmarinic acid biosynthesis in hornworts” (Planta, 2021).

Key:
Assay in all cases: purified protein
purified protein [1] = substrate: O=C(O)CC(=O)C(=O)O; settings: co-substrate 6 mM L-tyrosine, 0.48 mM PLP, 1 M Tris/HCl pH 8.5, 40 °C
purified protein [2] = substrate: N[C@@H](Cc1ccc(O)cc1)C(=O)O; type: biochemical, Anthoceros agrestis; settings: co-substrate 80 mM 2-oxoglutarate, 0.48 mM PLP, 1 M Tris/HCl pH 8.5, 40 °C
purified protein [3] = substrate: CC(=O)C(=O)O; type: biochemical, Anthoceros agrestis; settings: co-substrate 6 mM L-tyrosine, 0.48 mM PLP, 1 M Tris/HCl pH 8.5, 40 °C
purified protein [4] = substrate: O=C(O)CCC(=O)C(=O)O; type: biochemical, Anthoceros agrestis; settings: co-substrate 6 mM L-tyrosine, 0.48 mM PLP, 1 M Tris/HCl pH 8.5, 40 °C
purified protein [5] = substrate: O=C(O)C(=O)Cc1ccccc1; type: biochemical, Anthoceros agrestis; settings: co-substrate 6 mM L-tyrosine, 0.48 mM PLP, 1 M Tris/HCl pH 8.5, 40 °C
purified protein [6] = substrate: N[C@@H](Cc1ccccc1)C(=O)O; type: biochemical, Anthoceros agrestis; settings: co-substrate 80 mM 2-oxoglutarate, 0.48 mM PLP, 1 M Tris/HCl pH 8.5, 40 °C

B1: AaTAT (tyrosine aminotransferase) (Anthoceros agrestis) (protein)
chain: MATVLNQKRQAEILHGNGVEGGGGGLAVSKIMSKAVVGKPPVARKPAGKTVDKEWNVRPRIAALESRNPIRDIVETKLKPNPNLGKKPISLAQGDPTVYGHLKVPESACAALAEVATSYKYNGYAHSAGILECRSAVADFHSEHLPFELTPEDVGIVVGCSQAIEFSIACLAAEGSNMLVPRPGFPIYDTFCRYYGVEVRYYDLLPERGWEVDLEQVAELADDDTAAMILCNPSNPCGTSFSYQHLSQIAGLCEKLKLPIISDEIYEHMLFGEKKFTPMATFSLQVPVLTVGGISKRWLAPGWRLGWILICDPCCILEKSGVVEALKRIMQMTIGTSVLVQAAVPAMLQNTTPEFYKQTMKTLEDGCDCCYRRIQGIVGLDVPTKPDGAMYMMAKVDPSAFKDIPDDTVFAEKLVKEENIVVLPGSAFGIHNWLRLVFATPVYMLEEAFDRIEAFCLRHASVQN
notes: full length, 464 residues (1395 bp), N-terminal 6xHis tag kept, pET-15b, E. coli SoluBL21, Ni-NTA
Protein B1 has a Km (purified protein [1]) of 4.05 ± 1.44 mM, a Vmax (purified protein [1]) of 0.756 µmol/min/mg and a kcat (purified protein [1]) of 0.7 s⁻¹. For the same protein, the kcat/Km (purified protein [1]) was 200 M⁻¹ s⁻¹, the Km (purified protein [2]) was 0.53 ± 0.05 mM and the Vmax (purified protein [2]) was 55.3 µmol/min/mg. It also gave a kcat (purified protein [2]) of 48.9 ± 7.6 s⁻¹, a kcat/Km (purified protein [2]) of 91700 ± 9800 M⁻¹ s⁻¹ and a Km (purified protein [3]) of 81.14 ± 15.12 mM. For the same protein, the Vmax (purified protein [3]) was 13.4 µmol/min/mg, the kcat (purified protein [3]) was 11.9 ± 1.6 s⁻¹ and the kcat/Km (purified protein [3]) was 150 ± 20 M⁻¹ s⁻¹. It also gave a Km (purified protein [4]) of 15.13 ± 1.34 mM, a Vmax (purified protein [4]) of 82.6 µmol/min/mg and a kcat (purified protein [4]) of 73.1 ± 5.2 s⁻¹. It also gave a kcat/Km (purified protein [4]) of 4900 ± 300 M⁻¹ s⁻¹, a Km (purified protein [5]) of 7.92 ± 2.35 mM and a Vmax (purified protein [5]) of 31.8 µmol/min/mg. The kcat (purified protein [5]) was 28.2 ± 6.2 s⁻¹, the kcat/Km (purified protein [5]) was 3900 ± 1400 M⁻¹ s⁻¹ and the Km (purified protein [6]) was 70.47 ± 4.18 mM. For the same protein, the Vmax (purified protein [6]) was 134 µmol/min/mg, the kcat (purified protein [6]) was 119 ± 26.9 s⁻¹ and the kcat/Km (purified protein [6]) was 1700 ± 400 M⁻¹ s⁻¹.
